# Results as given in patent publication US10350168B2, “Dermal delivery compositions comprising active agent-calcium phosphate particle complexes and methods of using the same” (Laboratory Skin Care, Inc., priority 2009, dated 2019).
# B1: Lactoferrin: Lactoferrin from human milk, Sigma Aldrich (protein, UniProt P02788 20-710, looked up)
# Lactotransferrin: GRRRSVQWCAVSQPEATKCFQWQRNMRKVRGPPVSCIKRDSPIQCIQAIAENRADAVTLDGGFIYEAGLAPYKLRPVAAEVYGTERQPRTHYYAVAVVKKGGSFQLNELQGLKSCHTGLRRTAGWNVPIGTLRPFLNWTGPPEPIEAAVARFFSASCVPGADKGQFPNLCRLCAGTGENKCAFSSQEPYFSYSGAFKCLRDGAGDVAFIRESTVFEDLSDEAERDEYELLCPDNTRKPVDKFKDCHLARVPSHAVVARSVNGKEDAIWNLLRQAQEKFGKDKSPKFQLFGSPSGQKDLLFKDSAIGFSRVPPRIDSGLYLGSGYFTAIQNLRKSEEEVAARRARVVWCAVGEQELRKCNQWSGLSEGSVTCSSASTTEDCIALVLKGEADAMSLDGGYVYTAGKCGLVPVLAENYKSQQSSDPDPNCVDRPVEGYLAVAVVRRSDTSLTWNSVKGKKSCHTAVDRTAGWNIPMGLLFNQTGSCKFDEYFSQSCAPGSDPRSNLCALCIGDEQGENKCVPNSNERYYGYTGAFRCLAENAGDVAFVKDVTVLQNTDGNNNEAWAKDLKLADFALLCLDGKRKPVTEARSCHLAMAPNHAVVSRMDKVERLKQVLLHQQAKFGRNGSDCPDKFCLFQSETKNLLFNDNTECLARLHGKTTYEKYLGPQYVAGITNLKKCSTSPLLEACEFLRK
# Assay: Lactoferrin binding to calcium phosphate particles (UV 280 nm)
# Assay type: physicochemical
# Conditions: binding concentration of 2.99 mg/ml
# Description: • Calcium phosphate particles • Lactoferrin from human milk, Sigma Aldrich, Catalog No. 0520-100MG Methods: • i. Lactoferrin solution was prepared in water at 4.98 mg/ml. • ii. 0.3 g of Calcium phosphate particles was suspended in 1.2 ml of water and mixed for 5 min. • iii. 1.8 ml of Lactoferrin solution at 4.98 mg/ml was added to achieve the final concentrations at 3.0 mg/ml, and the final volume was 3 ml. • iv. The suspension was mixed for 30 min, and centrifuged at 5000×g for 10 min in a bench top centrifuge. • v. The absorbance of supernatant was measured at 280 nm (the detection wavelength for Lactoferrin) by UV spectrophotometer. • vi. […] Lactoferrin bound was calculated by subtracting the amount of the Lactoferrin detected in the supernatant from the total initial amount in the binding suspension.
molecule,measurement,value
B1,Lactoferrin bound to calcium phosphate particles,29.63 mg/g
